This note sets out measurements from patent publication US20230331811A1, “IMMOBILIZED SELF-ASSEMBLED PROTEIN MULTIMERS” (CCOA THERAPEUTICS INC., priority 2020, published 2023).

In assay [1] the target is Recombinant human ectodomain αIIbβ3, inactive (before activation) (human) (UniProt P08514). The assay can be described thus: flow cytometry, 50 nM FITC-PAC 1 on inactive αIIbβ3 beads. A general note: In flow cytometry, cells or beads pass a laser one at a time.
Assay [2] deals with Recombinant human ectodomain αIIbβ3, activated (high-affinity ligand binding conformation) (human) (UniProt P08514). Put plainly: flow cytometry, 50 nM FITC-PAC 1 on activated αIIbβ3 beads.
Sequence of Recombinant human ectodomain αIIbβ3, activated (high-affinity ligand binding conformation) (human) (P08514 other isoform, or with tags, fused parts or gaps limits assumed, chain 1 of 2): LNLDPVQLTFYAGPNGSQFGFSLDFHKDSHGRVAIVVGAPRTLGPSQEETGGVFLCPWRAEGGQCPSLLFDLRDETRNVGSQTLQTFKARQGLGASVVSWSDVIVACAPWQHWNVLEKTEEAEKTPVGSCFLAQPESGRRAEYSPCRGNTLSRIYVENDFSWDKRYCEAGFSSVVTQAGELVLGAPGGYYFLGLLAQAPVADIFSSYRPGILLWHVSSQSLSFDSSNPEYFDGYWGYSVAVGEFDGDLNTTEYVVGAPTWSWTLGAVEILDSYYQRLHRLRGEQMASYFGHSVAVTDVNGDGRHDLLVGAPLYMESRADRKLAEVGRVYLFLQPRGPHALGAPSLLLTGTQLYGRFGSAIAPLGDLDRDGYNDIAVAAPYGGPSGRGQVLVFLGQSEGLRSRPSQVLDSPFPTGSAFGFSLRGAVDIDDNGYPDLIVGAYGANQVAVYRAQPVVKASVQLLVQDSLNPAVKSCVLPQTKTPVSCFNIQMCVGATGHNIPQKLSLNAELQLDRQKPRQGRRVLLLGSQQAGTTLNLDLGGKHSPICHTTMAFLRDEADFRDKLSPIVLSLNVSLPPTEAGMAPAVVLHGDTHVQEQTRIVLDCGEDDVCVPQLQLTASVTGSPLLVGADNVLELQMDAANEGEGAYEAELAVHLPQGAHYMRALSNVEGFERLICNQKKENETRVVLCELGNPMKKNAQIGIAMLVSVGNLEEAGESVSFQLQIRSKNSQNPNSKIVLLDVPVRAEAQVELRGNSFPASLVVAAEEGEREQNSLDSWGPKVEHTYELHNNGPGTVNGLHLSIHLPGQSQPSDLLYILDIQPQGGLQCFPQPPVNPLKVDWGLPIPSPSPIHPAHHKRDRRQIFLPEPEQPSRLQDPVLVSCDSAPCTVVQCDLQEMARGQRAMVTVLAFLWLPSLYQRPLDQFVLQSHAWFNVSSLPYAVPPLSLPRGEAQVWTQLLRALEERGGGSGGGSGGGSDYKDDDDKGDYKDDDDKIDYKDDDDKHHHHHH
Sequence of Recombinant human ectodomain αIIbβ3, activated (high-affinity ligand binding conformation) (human) (chain, as listed by the source limits assumed, chain 2 of 2): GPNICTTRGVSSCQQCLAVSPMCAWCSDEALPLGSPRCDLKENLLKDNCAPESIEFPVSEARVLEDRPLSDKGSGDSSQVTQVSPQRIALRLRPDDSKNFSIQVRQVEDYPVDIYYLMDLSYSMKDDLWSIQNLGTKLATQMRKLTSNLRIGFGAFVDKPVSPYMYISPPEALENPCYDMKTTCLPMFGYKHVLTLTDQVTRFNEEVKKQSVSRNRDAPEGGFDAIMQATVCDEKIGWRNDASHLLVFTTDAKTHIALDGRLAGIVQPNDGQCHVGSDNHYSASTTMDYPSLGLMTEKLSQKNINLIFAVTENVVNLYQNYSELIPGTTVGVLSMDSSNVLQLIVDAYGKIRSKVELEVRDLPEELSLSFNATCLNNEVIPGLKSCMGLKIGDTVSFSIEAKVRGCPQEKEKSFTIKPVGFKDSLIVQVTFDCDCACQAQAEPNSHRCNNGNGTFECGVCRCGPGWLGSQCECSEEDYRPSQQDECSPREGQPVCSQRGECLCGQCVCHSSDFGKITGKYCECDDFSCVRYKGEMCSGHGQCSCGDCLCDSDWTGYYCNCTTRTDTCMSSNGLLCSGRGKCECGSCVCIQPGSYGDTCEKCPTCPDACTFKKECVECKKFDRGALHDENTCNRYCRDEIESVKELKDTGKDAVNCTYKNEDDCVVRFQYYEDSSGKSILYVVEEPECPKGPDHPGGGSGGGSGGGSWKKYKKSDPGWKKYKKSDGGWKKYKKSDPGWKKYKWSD
For assay [3], the target named is Recombinant human ectodomain αIIbβ3, inactive (before activation) (human) (UniProt P08514). The assay can be described thus: flow cytometry, 50 nM Alexa488-fibrinogen on inactive αIIbβ3 beads.

Sequence of Recombinant human ectodomain αIIbβ3, inactive (before activation) (human) (P08514 other isoform, or with tags, fused parts or gaps limits assumed, chain 1 of 2): as the sequence (P08514 other isoform, or with tags, fused parts or gaps limits assumed, chain 1 of 2) above
Sequence of Recombinant human ectodomain αIIbβ3, inactive (before activation) (human) (chain, as listed by the source limits assumed, chain 2 of 2): as the sequence (chain, as listed by the source limits assumed, chain 2 of 2) above

For the substance “PAC-1 (antibody specific for the active upright conformation of αIIbβ3)”, the Mean Fluorescence Intensity (MFI) was determined as 212 MFI in assay [1] and 942 MFI in assay [2]. For “Fibrinogen (from UniProt P02671 20-644; P02675 31-491; P02679 27-437) (ligand)”, in assay [3], the Mean Fluorescence Intensity (MFI) stood at 52.7 MFI.
